In patent publication US20110044995A1:

What was measured:
Assay in all cases: cell-based or functional assay
[1] = molecular target: envelope of standard panel pseudotyped virus SVPB18 (HIV-1 subtype B)
[2] = molecular target: envelope of HIV-1 strain BaL (HIV-1 strain BaL)
[3] = molecular target: envelope of HIV-1 strain 89.6 (HIV-1 strain 89.6) (UniProt Q73372)
[4] = molecular target: envelope of standard panel pseudotyped virus SVPB16 (HIV-1 subtype B)
[5] = molecular target: envelope of standard panel pseudotyped virus SVPB11 (HIV-1 subtype B)
[6] = molecular target: envelope of standard panel pseudotyped virus SVPB15 (HIV-1 subtype B)
[7] = molecular target: envelope of standard panel pseudotyped virus SVPB5 (HIV-1 subtype B)
[8] = molecular target: envelope of standard panel pseudotyped virus SVPB8 (HIV-1 subtype B)
[9] = molecular target: envelope of standard panel pseudotyped virus SVPB14 (HIV-1 subtype B)
[10] = molecular target: envelope of HIV-2 strain EHO (HIV-2 strain EHO)
[11] = molecular target: envelope of HIV-1 strain IIIB (HIV-1 strain IIIB)
[12] = molecular target: envelope of HIV-2 strain ROD (HIV-2 strain ROD) (UniProt P04577)
envelope of HIV-2 strain ROD (HIV-2 strain ROD), sequence (P04577 20-858): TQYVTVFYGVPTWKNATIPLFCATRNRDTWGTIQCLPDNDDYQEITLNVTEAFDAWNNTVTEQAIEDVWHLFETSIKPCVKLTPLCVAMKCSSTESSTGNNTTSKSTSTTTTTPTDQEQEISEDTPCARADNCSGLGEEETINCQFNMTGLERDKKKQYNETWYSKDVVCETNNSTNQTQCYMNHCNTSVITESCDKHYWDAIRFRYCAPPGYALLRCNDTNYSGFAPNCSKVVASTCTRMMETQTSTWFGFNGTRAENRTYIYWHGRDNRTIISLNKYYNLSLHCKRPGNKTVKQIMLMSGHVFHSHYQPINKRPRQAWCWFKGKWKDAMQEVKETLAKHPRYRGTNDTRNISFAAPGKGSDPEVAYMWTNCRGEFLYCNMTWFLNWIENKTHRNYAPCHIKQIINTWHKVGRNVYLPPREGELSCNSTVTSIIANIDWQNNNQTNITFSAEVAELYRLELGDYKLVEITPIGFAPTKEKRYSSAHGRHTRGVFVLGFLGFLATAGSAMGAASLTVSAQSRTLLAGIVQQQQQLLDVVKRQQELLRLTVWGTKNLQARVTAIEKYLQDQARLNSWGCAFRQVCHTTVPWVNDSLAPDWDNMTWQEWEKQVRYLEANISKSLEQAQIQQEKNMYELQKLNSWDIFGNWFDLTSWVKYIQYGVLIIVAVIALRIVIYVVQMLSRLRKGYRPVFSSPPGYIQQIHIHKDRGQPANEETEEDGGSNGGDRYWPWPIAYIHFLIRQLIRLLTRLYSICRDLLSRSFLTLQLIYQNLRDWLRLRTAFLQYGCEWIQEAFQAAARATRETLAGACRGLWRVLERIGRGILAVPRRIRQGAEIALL

[13] = molecular target: envelope of standard panel pseudotyped virus SVPB17 (HIV-1 subtype B)
[14] = molecular target: envelope of HIV-1 strain YU2 (HIV-1 strain YU2) (UniProt P35961)
envelope of HIV-1 strain YU2 (HIV-1 strain YU2), sequence (P35961 32-843): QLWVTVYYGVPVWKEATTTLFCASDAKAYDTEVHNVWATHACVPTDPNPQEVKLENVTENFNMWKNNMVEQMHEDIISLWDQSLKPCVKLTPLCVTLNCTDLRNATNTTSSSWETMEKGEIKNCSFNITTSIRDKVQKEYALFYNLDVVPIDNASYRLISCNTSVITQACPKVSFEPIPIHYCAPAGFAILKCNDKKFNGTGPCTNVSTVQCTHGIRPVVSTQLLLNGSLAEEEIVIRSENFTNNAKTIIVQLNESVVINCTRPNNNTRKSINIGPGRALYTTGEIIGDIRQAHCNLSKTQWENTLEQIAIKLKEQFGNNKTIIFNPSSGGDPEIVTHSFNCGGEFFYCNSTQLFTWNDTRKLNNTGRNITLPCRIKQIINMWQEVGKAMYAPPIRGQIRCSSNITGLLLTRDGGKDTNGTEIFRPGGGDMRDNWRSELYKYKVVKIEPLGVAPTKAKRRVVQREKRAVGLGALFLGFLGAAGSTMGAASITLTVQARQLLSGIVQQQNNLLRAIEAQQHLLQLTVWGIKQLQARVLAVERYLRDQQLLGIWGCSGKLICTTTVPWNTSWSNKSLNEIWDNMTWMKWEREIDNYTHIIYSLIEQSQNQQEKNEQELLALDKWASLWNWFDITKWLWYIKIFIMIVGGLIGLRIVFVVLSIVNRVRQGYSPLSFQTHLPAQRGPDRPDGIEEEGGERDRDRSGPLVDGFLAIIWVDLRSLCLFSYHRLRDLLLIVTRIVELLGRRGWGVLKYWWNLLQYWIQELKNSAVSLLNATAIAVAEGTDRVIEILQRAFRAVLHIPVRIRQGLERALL

[15] = molecular target: envelope of HIV-1 strain JRFLGPER
[16] = molecular target: envelope of standard panel pseudotyped virus SVPB13 (HIV-1 subtype B)
[17] = molecular target: envelope of HIV-1 strain JR-FL (JRFLwt), on virus (HIV-1 strain JR-FL)
[18] = molecular target: envelope of standard panel pseudotyped virus SVPB12 (HIV-1 subtype B)
[19] = molecular target: envelope of standard panel pseudotyped virus SVPB6 (HIV-1 subtype B)
[20] = molecular target: envelope of HIV-1 strain SF162 (HIV-1 strain SF162) (UniProt P19550)

KD-247 (antibody)
IC50 in TZM-bl cells [1]: 28 µg/mL
IC50, neutralizing activity (MTT assay) [2]: 3.8 µg/mL
IC50, neutralizing activity (MTT assay) [3]: 4.2 µg/mL
IC50 in TZM-bl cells [4]: > 50 µg/mL
IC50 in TZM-bl cells [5]: > 50 µg/mL
IC50 in TZM-bl cells [6]: > 50 µg/mL
IC50 in TZM-bl cells [7]: 1.8 µg/mL
IC50 in TZM-bl cells [8]: > 50 µg/mL
IC50 in TZM-bl cells [9]: > 50 µg/mL
IC50, neutralizing activity (MTT assay) [10]: > 50 µg/mL
IC50, neutralizing activity (MTT assay) [11]: > 50 µg/mL
IC50, neutralizing activity (MTT assay) [12]: > 50 µg/mL
IC50 in TZM-bl cells [13]: 17 µg/mL
IC50, neutralizing activity (MTT assay) [14]: > 50 µg/mL
IC50, neutralizing activity (MTT assay) [15]: > 50 µg/mL
IC50 in TZM-bl cells [16]: > 50 µg/mL
IC50, neutralizing activity (MTT assay) [17]: 12 µg/mL
IC50 in TZM-bl cells [18]: > 50 µg/mL
IC50 in TZM-bl cells [19]: > 50 µg/mL
IC50, neutralizing activity (MTT assay) [20]: 0.21 µg/mL
